Results published in patent US20180051079A1 (MacroGenics, published 2018).

T1: CD32B (UniProt P31994 43-217, limits assumed)
T1 construct: Only the name is printed; also called FcγRIIB
T1 sequence (looked up): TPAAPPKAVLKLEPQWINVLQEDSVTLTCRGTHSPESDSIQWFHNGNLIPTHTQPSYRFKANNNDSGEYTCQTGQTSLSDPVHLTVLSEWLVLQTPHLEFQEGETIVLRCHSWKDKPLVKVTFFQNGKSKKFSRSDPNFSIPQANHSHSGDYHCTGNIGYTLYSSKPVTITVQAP


Experiments:
Assay in all cases: assay not named in Table 4
CD32B = target: T1, CD32B
CD16A F158 = target: T2, CD16A F158 (UniProt P08637 17-208, limits assumed)
T2 construct: Only the name and allotype are printed; also called FcγRIIIA

CD16A V158 = target: T3, CD16A V158 (UniProt P08637 17-208, limits assumed)
T3 construct: Only the name and allotype are printed; also called FcγRIIIA
T3 sequence (P08637 17-208 F176V limits assumed): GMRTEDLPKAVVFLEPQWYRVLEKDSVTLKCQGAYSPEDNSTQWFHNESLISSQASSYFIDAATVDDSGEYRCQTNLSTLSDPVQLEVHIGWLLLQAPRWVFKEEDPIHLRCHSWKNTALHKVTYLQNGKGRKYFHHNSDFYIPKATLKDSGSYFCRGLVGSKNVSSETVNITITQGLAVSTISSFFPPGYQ

T2 sequence (P08637 17-208 limits assumed): as the sequence (P08637 17-208 F176V limits assumed) above, with V160F counted along it

Molecule	binding relative to wild-type Fc (CD32B)	binding relative to wild-type Fc (CD16A F158)	binding relative to wild-type Fc (CD16A V158)
Fc variant V284M R292P K370N (from UniProt P01857 104-330)	0.37	1.37	1.14
Fc variant D270E G316D R416G (other, UniProt P01857-1 104-330, looked up, domain: Fc) DKTHTCPPCPAPELLGGPSVFLFPPKPKDTLMISRTPEVTCVVVDVSHEEPEVKFNWYVDGVEVHNAKTKPREEQYNSTYRVVSVLTVLHQDWLNDKEYKCKVSNKALPAPIEKTISKAKGQPREPQVYTLPPSRDELTKNQVSLTCLVKGFYPSDIAVEWESNGQPENNYKTTPPVLDSDGSFFLYSKLTVDKSGWQQGNVFSCSVMHEALHNHYTQKSLSLSPGK	0.78	2.49	2.18
Fc variant F243L P247L N421K (other, UniProt P01857-1 104-330, looked up, domain: Fc) DKTHTCPPCPAPELLGGPSVFLLPPKLKDTLMISRTPEVTCVVVDVSHEDPEVKFNWYVDGVEVHNAKTKPREEQYNSTYRVVSVLTVLHQDWLNGKEYKCKVSNKALPAPIEKTISKAKGQPREPQVYTLPPSRDELTKNQVSLTCLVKGFYPSDIAVEWESNGQPENNYKTTPPVLDSDGSFFLYSKLTVDKSRWQQGKVFSCSVMHEALHNHYTQKSLSLSPGK	0.17	1.71	1.89
Fc variant F243L D270E P396L Q419H (other, UniProt P01857-1 104-330, looked up, domain: Fc) DKTHTCPPCPAPELLGGPSVFLLPPKPKDTLMISRTPEVTCVVVDVSHEEPEVKFNWYVDGVEVHNAKTKPREEQYNSTYRVVSVLTVLHQDWLNGKEYKCKVSNKALPAPIEKTISKAKGQPREPQVYTLPPSRDELTKNQVSLTCLVKGFYPSDIAVEWESNGQPENNYKTTPLVLDSDGSFFLYSKLTVDKSRWQHGNVFSCSVMHEALHNHYTQKSLSLSPGK	0.26	1.15	1.46
Fc variant D270E P396L Q419H (other, UniProt P01857-1 104-330, looked up, domain: Fc) DKTHTCPPCPAPELLGGPSVFLFPPKPKDTLMISRTPEVTCVVVDVSHEEPEVKFNWYVDGVEVHNAKTKPREEQYNSTYRVVSVLTVLHQDWLNGKEYKCKVSNKALPAPIEKTISKAKGQPREPQVYTLPPSRDELTKNQVSLTCLVKGFYPSDIAVEWESNGQPENNYKTTPLVLDSDGSFFLYSKLTVDKSRWQHGNVFSCSVMHEALHNHYTQKSLSLSPGK	0.68		1.64
Fc variant F243L R292P V305I P396L (other, UniProt P01857-1 104-330, looked up, domain: Fc; also called Mutant 17) DKTHTCPPCPAPELLGGPSVFLLPPKPKDTLMISRTPEVTCVVVDVSHEDPEVKFNWYVDGVEVHNAKTKPPEEQYNSTYRVVSILTVLHQDWLNGKEYKCKVSNKALPAPIEKTISKAKGQPREPQVYTLPPSRDELTKNQVSLTCLVKGFYPSDIAVEWESNGQPENNYKTTPLVLDSDGSFFLYSKLTVDKSRWQQGNVFSCSVMHEALHNHYTQKSLSLSPGK	0.4	2.53	5.37
Fc variant F243L R292P Y300L P396L (other, UniProt P01857-1 104-330, looked up, domain: Fc; also called Mutant 16) DKTHTCPPCPAPELLGGPSVFLLPPKPKDTLMISRTPEVTCVVVDVSHEDPEVKFNWYVDGVEVHNAKTKPPEEQYNSTLRVVSVLTVLHQDWLNGKEYKCKVSNKALPAPIEKTISKAKGQPREPQVYTLPPSRDELTKNQVSLTCLVKGFYPSDIAVEWESNGQPENNYKTTPLVLDSDGSFFLYSKLTVDKSRWQQGNVFSCSVMHEALHNHYTQKSLSLSPGK	1.07	5.62	10.1
Fc variant R255L D270E Y300L P396L (other, UniProt P01857-1 104-330, looked up, domain: Fc) DKTHTCPPCPAPELLGGPSVFLFPPKPKDTLMISLTPEVTCVVVDVSHEEPEVKFNWYVDGVEVHNAKTKPREEQYNSTLRVVSVLTVLHQDWLNGKEYKCKVSNKALPAPIEKTISKAKGQPREPQVYTLPPSRDELTKNQVSLTCLVKGFYPSDIAVEWESNGQPENNYKTTPLVLDSDGSFFLYSKLTVDKSRWQQGNVFSCSVMHEALHNHYTQKSLSLSPGK	0.87	1.74	1.52
Fc variant F243L R292P Y300L V305I P396L (other, UniProt P01857-1 104-330, looked up, domain: Fc; also called Mutant 18) DKTHTCPPCPAPELLGGPSVFLLPPKPKDTLMISRTPEVTCVVVDVSHEDPEVKFNWYVDGVEVHNAKTKPPEEQYNSTLRVVSILTVLHQDWLNGKEYKCKVSNKALPAPIEKTISKAKGQPREPQVYTLPPSRDELTKNQVSLTCLVKGFYPSDIAVEWESNGQPENNYKTTPLVLDSDGSFFLYSKLTVDKSRWQQGNVFSCSVMHEALHNHYTQKSLSLSPGK	1.38	8.25	10.1
Fc variant D270E K392T P396L (other, UniProt P01857-1 104-330, looked up, domain: Fc) DKTHTCPPCPAPELLGGPSVFLFPPKPKDTLMISRTPEVTCVVVDVSHEEPEVKFNWYVDGVEVHNAKTKPREEQYNSTYRVVSVLTVLHQDWLNGKEYKCKVSNKALPAPIEKTISKAKGQPREPQVYTLPPSRDELTKNQVSLTCLVKGFYPSDIAVEWESNGQPENNYTTTPLVLDSDGSFFLYSKLTVDKSRWQQGNVFSCSVMHEALHNHYTQKSLSLSPGK	0.79	2.28	1.81
Fc variant P247L D270E N421K (other, UniProt P01857-1 104-330, looked up, domain: Fc) DKTHTCPPCPAPELLGGPSVFLFPPKLKDTLMISRTPEVTCVVVDVSHEEPEVKFNWYVDGVEVHNAKTKPREEQYNSTYRVVSVLTVLHQDWLNGKEYKCKVSNKALPAPIEKTISKAKGQPREPQVYTLPPSRDELTKNQVSLTCLVKGFYPSDIAVEWESNGQPENNYKTTPPVLDSDGSFFLYSKLTVDKSRWQQGKVFSCSVMHEALHNHYTQKSLSLSPGK	0.58	2.46	1.89
Fc variant F243L P247L D270E N421K (other, UniProt P01857-1 104-330, looked up, domain: Fc) DKTHTCPPCPAPELLGGPSVFLLPPKLKDTLMISRTPEVTCVVVDVSHEEPEVKFNWYVDGVEVHNAKTKPREEQYNSTYRVVSVLTVLHQDWLNGKEYKCKVSNKALPAPIEKTISKAKGQPREPQVYTLPPSRDELTKNQVSLTCLVKGFYPSDIAVEWESNGQPENNYKTTPPVLDSDGSFFLYSKLTVDKSRWQQGKVFSCSVMHEALHNHYTQKSLSLSPGK	0.32	3.45	2.3
Fc variant F243L R292P V305I (other, UniProt P01857-1 104-330, looked up, domain: Fc; also called Mutant 13*) DKTHTCPPCPAPELLGGPSVFLLPPKPKDTLMISRTPEVTCVVVDVSHEDPEVKFNWYVDGVEVHNAKTKPPEEQYNSTYRVVSILTVLHQDWLNGKEYKCKVSNKALPAPIEKTISKAKGQPREPQVYTLPPSRDELTKNQVSLTCLVKGFYPSDIAVEWESNGQPENNYKTTPPVLDSDGSFFLYSKLTVDKSRWQQGNVFSCSVMHEALHNHYTQKSLSLSPGK		1.43	2.56
Fc variant R255L D270E P396L (other, UniProt P01857-1 104-330, looked up, domain: Fc) DKTHTCPPCPAPELLGGPSVFLFPPKPKDTLMISLTPEVTCVVVDVSHEEPEVKFNWYVDGVEVHNAKTKPREEQYNSTYRVVSVLTVLHQDWLNGKEYKCKVSNKALPAPIEKTISKAKGQPREPQVYTLPPSRDELTKNQVSLTCLVKGFYPSDIAVEWESNGQPENNYKTTPLVLDSDGSFFLYSKLTVDKSRWQQGNVFSCSVMHEALHNHYTQKSLSLSPGK	0.87	1.65	1.34
Fc variant F243L D270E G316D R416G (other, UniProt P01857-1 104-330, looked up, domain: Fc) DKTHTCPPCPAPELLGGPSVFLLPPKPKDTLMISRTPEVTCVVVDVSHEEPEVKFNWYVDGVEVHNAKTKPREEQYNSTYRVVSVLTVLHQDWLNDKEYKCKVSNKALPAPIEKTISKAKGQPREPQVYTLPPSRDELTKNQVSLTCLVKGFYPSDIAVEWESNGQPENNYKTTPPVLDSDGSFFLYSKLTVDKSGWQQGNVFSCSVMHEALHNHYTQKSLSLSPGK	0.2	1.34	1.5
Fc variant F243L D270E K392T P396L (other, UniProt P01857-1 104-330, looked up, domain: Fc) DKTHTCPPCPAPELLGGPSVFLLPPKPKDTLMISRTPEVTCVVVDVSHEEPEVKFNWYVDGVEVHNAKTKPREEQYNSTYRVVSVLTVLHQDWLNGKEYKCKVSNKALPAPIEKTISKAKGQPREPQVYTLPPSRDELTKNQVSLTCLVKGFYPSDIAVEWESNGQPENNYTTTPLVLDSDGSFFLYSKLTVDKSRWQQGNVFSCSVMHEALHNHYTQKSLSLSPGK	0.44	2.44	3.16
Fc variant F243I R292P Y300L V305I P396L (other, UniProt P01857-1 104-330, looked up, domain: Fc; Written as printed (F243I); may be a misprint of F243L) DKTHTCPPCPAPELLGGPSVFLIPPKPKDTLMISRTPEVTCVVVDVSHEDPEVKFNWYVDGVEVHNAKTKPPEEQYNSTLRVVSILTVLHQDWLNGKEYKCKVSNKALPAPIEKTISKAKGQPREPQVYTLPPSRDELTKNQVSLTCLVKGFYPSDIAVEWESNGQPENNYKTTPLVLDSDGSFFLYSKLTVDKSRWQQGNVFSCSVMHEALHNHYTQKSLSLSPGK	1.05	3.12	
Fc variant R255L D270E R292G P396L (other, UniProt P01857-1 104-330, looked up, domain: Fc) DKTHTCPPCPAPELLGGPSVFLFPPKPKDTLMISLTPEVTCVVVDVSHEEPEVKFNWYVDGVEVHNAKTKPGEEQYNSTYRVVSVLTVLHQDWLNGKEYKCKVSNKALPAPIEKTISKAKGQPREPQVYTLPPSRDELTKNQVSLTCLVKGFYPSDIAVEWESNGQPENNYKTTPLVLDSDGSFFLYSKLTVDKSRWQQGNVFSCSVMHEALHNHYTQKSLSLSPGK	0.65		
Fc variant F243L R255L D270E P396L (other, UniProt P01857-1 104-330, looked up, domain: Fc) DKTHTCPPCPAPELLGGPSVFLLPPKPKDTLMISLTPEVTCVVVDVSHEEPEVKFNWYVDGVEVHNAKTKPREEQYNSTYRVVSVLTVLHQDWLNGKEYKCKVSNKALPAPIEKTISKAKGQPREPQVYTLPPSRDELTKNQVSLTCLVKGFYPSDIAVEWESNGQPENNYKTTPLVLDSDGSFFLYSKLTVDKSRWQQGNVFSCSVMHEALHNHYTQKSLSLSPGK	0.38	1.64	1.75
